According to patent publication US20080132681A1:
Where “and” joins values, the source holds several entries; their conditions need not be identical. Identical values can stand only once.

Molecular target: IFNα receptor 2 (IFNAR2) on THP-1 cells (human) (UniProt P48551)
Assay: cell-based or functional assay

Chain of UniProt P48551 (P48551 27-515): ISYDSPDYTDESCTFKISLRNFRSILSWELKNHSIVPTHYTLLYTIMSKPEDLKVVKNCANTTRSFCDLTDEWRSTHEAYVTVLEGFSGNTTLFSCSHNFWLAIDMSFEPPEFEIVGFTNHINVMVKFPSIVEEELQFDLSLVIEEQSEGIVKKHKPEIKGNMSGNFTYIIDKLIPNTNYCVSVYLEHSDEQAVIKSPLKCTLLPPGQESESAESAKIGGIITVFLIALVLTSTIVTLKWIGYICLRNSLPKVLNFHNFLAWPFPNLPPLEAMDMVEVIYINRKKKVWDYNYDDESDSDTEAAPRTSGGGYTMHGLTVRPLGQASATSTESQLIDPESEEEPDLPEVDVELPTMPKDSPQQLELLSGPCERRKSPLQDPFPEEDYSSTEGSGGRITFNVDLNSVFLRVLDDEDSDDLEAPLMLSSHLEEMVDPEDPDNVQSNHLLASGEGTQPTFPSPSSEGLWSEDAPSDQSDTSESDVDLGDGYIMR

“6HisC1G/C98 IFNα-2a + limitin loop (from UniProt P01563 25-188) (ligand)” was tested, and the pSTAT1 EC50 (THP-1 cells) was 30 pM and 34.8 pM.
